Reference: US7906705B2

What was measured:
[1] = substrate: O=P(O)(O)O[C@H]1O[C@H](CO)[C@@H](O)[C@H](O)[C@H]1O; assay: purified protein, by the assay type; details: other: UDP sugar synthesis direction, 2.5 mM UTP, substrate 0 to 5 mM, pH 7.5, 30° C.
[2] = substrate: O=P(O)(O)O[C@H]1O[C@H](CO)[C@H](O)[C@H](O)[C@H]1O; assay: purified protein, by the assay type; details: other: UDP sugar synthesis direction, 2.5 mM UTP, substrate 0 to 5 mM, pH 7.5, 30° C., E. coli expressed, partially purified
[3] = E. coli expressed, partially purified

B1: melon UGGPase (UDP-Gal/Glc pyrophosphorylase), SEQ ID NO: 33 (Cucumis melo) (protein)
chain: MASSLDSAALTLSNLSINGDFASSLPNLQKNLHLLSPQQVELAKILLELGQSHLFEHWAEPGVDDNEKKAFFDQVARLNSSYPGGLASYIKTARGLLADSKEGKNPFDGFTPSVPTGEVLTFGDDSFVSFEDRGVREARKAAFVLVAGGLGERLGYNGIKVALPAETTTGTCFLQSYIEYVLALREASNRLAGESETEIPFVIMTSDDTHTRTVELLESNSYFGMKPSQVKLLKQEKVACLDDNEARLAVDPHNKYRIQTKPHGHGDVHALLYSSGLLKNWHNAGLRWVLFFQDTNGLLFKAIPASLGVSATREYHVNSLAVPRKAKEAIGGITRLTHTDGRSMVINVEYNQLDPLLRATGFPDGDVNNETGYSPFPGNINQLILELGSYIEELSKTQGAIKEFVNPKYKDATKTSFKSSTRLECMMQDYPKTLPPSARVGFTVMDTWVAYAPVKNNPEDAAKVPKGNPYHSATSGEMAIYRANSLVLRKAGVKVADPVEQVFNGQEVEVWPRITWKPKWGLTFSEIKSKINGNCSISPRSTLVIKGKNVYLKDLSLDGTLIVNADEDAEVKVEGSVHNKGWTLEPVDYKDTSVPEEIRIRGFRINKIEQEERN
- Km [1, 3]: 270 µM
- Vmax [1, 3]: 222 μmol mg protein^−1min^−1
- Km [2]: 430 µM
- Vmax [2]: 714 μmol mg protein^−1min^−1

B2: melon UGPase (UDP glucose pyrophosphorylase), SEQ ID NO: 35 (Cucumis melo) (protein)
chain: MASAATLSPADTEKLSKLKASVSGLTQISENEKSGFINLVSRYLSGEAQHVEWSKIQTPTDEVVVPYDSLAPVPNDPAETKKLLDKLVVLKLNGGLGTTMGCTGPKSVIEVRNGLTFLDLIVIQIENLNSKYGCNVPLLLMNSFNTHDDTQKIIEKYKGSNVDIHTFNQSQYPRLVAEDYLPLPSKGRTDKDGWYPPGHGDVFPSLKNSGKLDALIAQGKEYVFVANSDNLGAVVDLQILNHLIQNKNEYCMEVTPKTLADVKGGTLISYEGKVQLLEIAQVPDEHVNEFKSIQKFKIFNTNNLWVNLKAIKRLVEANALKMEIIPNPKEVDGIKVLQLETAAGAAIRFFDHAIGINVPRSRFLPVKATSDLLLVQSDLYTLVDGFVLRNKARKDPSNPSIELGPEFKKVGNFLSRFKSIPSIIELDSLKVVGDVSFGAGVVLKGKVTISAKPGTKLAVPDNAVIANKEINGPEDF
- Km ([1]; ND = Not detected): 240 µM
- Vmax ([1]; ND = Not detected): 238 μmol mg protein^−1min^−1
